T1: binding between TAK1 and TAB1 (Homo sapiens, UniProt O43318)
T1 construct: amino acid Met at amino acid position 1 to amino acid Ser at amino acid position 579; made in house; host or cells: COS-7 cells transfected with pCOS-TAK1 or pCOS-FTAB1; unpurified cell extracts
T1 sequence (O43318 1-579 isoform O43318-2): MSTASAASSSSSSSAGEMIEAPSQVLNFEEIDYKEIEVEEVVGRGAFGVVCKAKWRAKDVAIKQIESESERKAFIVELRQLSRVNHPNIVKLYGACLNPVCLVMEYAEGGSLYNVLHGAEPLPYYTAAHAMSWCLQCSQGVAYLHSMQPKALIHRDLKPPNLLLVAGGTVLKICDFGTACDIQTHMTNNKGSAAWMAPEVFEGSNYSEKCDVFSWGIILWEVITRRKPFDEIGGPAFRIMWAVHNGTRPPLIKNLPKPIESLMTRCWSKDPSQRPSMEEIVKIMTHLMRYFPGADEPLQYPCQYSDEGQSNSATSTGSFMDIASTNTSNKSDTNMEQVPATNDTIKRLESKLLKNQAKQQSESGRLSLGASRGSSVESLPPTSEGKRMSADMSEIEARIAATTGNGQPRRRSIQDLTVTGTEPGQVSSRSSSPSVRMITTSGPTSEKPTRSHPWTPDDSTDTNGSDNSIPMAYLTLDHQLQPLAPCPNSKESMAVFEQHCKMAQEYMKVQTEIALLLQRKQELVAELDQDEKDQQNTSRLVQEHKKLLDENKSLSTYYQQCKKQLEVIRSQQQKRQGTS

T2: binding between the recombinant MBP-TAB1C-FLAG polypeptide and the recombinant TAK1 polypeptide (Homo sapiens, UniProt O43318)
T2 construct: amino acid Met at amino acid position 1 to amino acid Ser at amino acid position 579; made in house; host or cells: TAK1-6xHis: Sf9/baculovirus; MBP-TAB1C-FLAG: E. coli periplasm (pMAL-p2)
T2 sequence (O43318 1-579 isoform O43318-2): T1 sequence (O43318 1-579 isoform O43318-2)

T3: human TAK1-6×His polypeptide (Homo sapiens, UniProt O43318)
T3 construct: amino acid Met at amino acid position 1 to amino acid Ser at amino acid position 579; made in house; host or cells: Sf9 insect cells, recombinant baculovirus
T3 sequence (O43318 1-579 isoform O43318-2): T1 sequence (O43318 1-579 isoform O43318-2)

B1: TAB1-FLAG: full-length human TAB1 with a FLAG tag added to the carboxy terminal (SEQ ID NO: 11) (protein)
chain: MAAQRRSLLQSEQQPSWTDDLPLCHLSGVGSASNRSYSADGKGTESHPPEDSWLKFRSENNCFLYGVFNGYDGNRVTNFVAQRLSAELLLGQLNAEHAEADVRRVLLQAFDVVERSFLESIDDALAEKASLQSQLPEGVPQHQLPPQYQKILERLKTLEREISGGAMAVVAVLLNNKLYVANVGTNRALLCKSTVDGLQVTQLNVDHTTENEDELFRLSQLGLDAGKIKQVGIICGQESTRRIGDYKVKYGYTDIDLLSAAKSKPIIAEPEIHGAQPLDGVTGFLVLMSEGLYKALEAAHGPGQANQEIAAMIDTEFAKQTSLDAVAQAVVDRVKRIHSDTFASGGERARFCPRHEDMTLLVRNFGYPLGEMSQPTPSPAPAAGGRVYPVSVPYSSAQSTSKTSVTLSLVMPSQGQMVNGAHSASTLDEATPTLTNQSPTLTLQSTNTHTQSSSSSSDGGLFRSRPAHSLPPGEDGRVEPYVDFAEFYRLWSVDHGEQSVVTAPGTGGSDYKDDDDK
modifications: C-terminal FLAG tag
B2: MBP-TAB1C-FLAG: fusion polypeptide of 81 amino acids at the carboxy terminal of human TAB1 and maltose-binding protein, with FLAG tag (protein)
chain: ASTLDEATPTLTNQSPTLTLQSTNTHTQSSSSSSDGGLFRSRPAHSLPPGEDGRVEPYVDFAEFYRLWSVDHGEQSVVTAPDYKDDDDK
modifications: left off: large carriers

Assays:
[1] = target: T1, binding between TAK1 and TAB1; assay: Immunoprecipitation and Western analysis binding-inhibition study using synthetic peptides; design: dose or concentration left out as unconfirmed; conditions: COS-7 cell extracts with TAK1-6×His or FLAG-TAB1; compared to no peptide
From the text: The fact that a synthetic peptide containing the amino acid sequence identified as the TAK1 binding region can inhibit binding between TAK1 and TAB1 was confirmed by the following experiment. Thus, a peptide TAB1C-1 (SEQ ID NO: 40) comprising 16 amino acid residues containing the TAK1 binding region of TAB1 described in the above Example and a control peptide TAB1C-2 (SEQ ID NO: 41) containing an amino acid sequence from Gln at position 437 to Gln at position 451 of TAB1 were each synthesized, and were evaluated for their effects on the binding between TAK1 and TAB1. The TAK1 and TAB1 used in the present invention were prepared in the following manner. […]
Subsequently, cell extracts each containing TAK1-6×His or FLAG-TAB1 and a 5 mM synthetic peptide were mixed to a final concentration of […], respectively, and then incubated overnight at 4° C. It was then immunoprecipitated using anti-TAK1 antibody, and the amount of bound TAK1 and TAB1 was evaluated by determining the amount of TAB1 that coprecipitated by Western analysis. […] After it was blocked using a TBS solution containing 5% BSA, TAK1 in the immunoprecipitate was detected using anti-TAK1 antibody (manufactured by SantaCruz) and the coprecipitataed FLAG-TAB1 was detected using anti-FLAG M2 antibody (manufactured by Kodak). […]

[2] = target: T2, binding between the recombinant MBP-TAB1C-FLAG polypeptide and the recombinant TAK1 polypeptide; assay: ELISA binding-inhibition study with TAB1-FLAG as inhibiting substance; conditions: serially diluted TAB1-FLAG added together with MBP-TAB1C-FLAG
Description: It was investigated whether the recombinant human TAB1-FLAG polypeptide used as an inhibiting substance inhibits binding between the recombinant MBP-TAB1C-FLAG polypeptide and the recombinant TAK1 polypeptide.
In a similar manner to that in the above 5-1 (2), the recombinant human TAK1-6×His polypeptide was immobilized and was blocked. Then the recombinant human TAB1-FLAG polypeptide that was serially diluted in the dilution buffer was added as a binding-inhibiting substance to each well together with 16.5 μl each of the recombinant MBP-TAB1C-FLAG polypeptide and incubated.

[3] = target: T3, human TAK1-6×His polypeptide; assay: ELISA in vitro binding-evaluation system: MBP-TAB1C-FLAG on immobilized TAK1-6×His; conditions: 100 ng TAK1-6×His per well; no increase where TAK1-6×His was not immobilized
From the text: Using the purified product obtained as above an ELISA system was constructed to detect in vitro an interaction between the recombinant human TAB1 polypeptide or the recombinant MBP-TAB1C-FLAG polypeptide and the recombinant human-TAK1 polypeptide. In the ELISA system it is intended to contact the recombinant human TAB1-FLAG polypeptide or the human MBP-TAB1C-FLAG polypeptide to a 96-well immunoplate to which the human TAK1-6×His polypeptide had been previously immobilized and thereby to detect the recombinant human TAB1-FLAG polypeptide or the recombinant MBP-TAB1C-FLAG polypeptide using a primary and secondary antibody.
(1) The purified product of human TAK1-6×His polypeptide was diluted in the immobilization buffer (0.1 M NaHCO3, 0.02% NaN3, pH 9.6). To each well of a 96-well immunoplate (manufactured by Nunc) was added 100 μl each of the diluted aqueous solution (equivalent to 100 ng of the human TAK1-6×His polypeptide), and the plate was incubated overnight at 4° C. […]
After each well was washed five times with the wash buffer, 100 μl of the color development solution (the substrate buffer; p-nitrophenyl phosphate dissolved to 1 mg/ml in 50 mM NaHCO3, 10 mM MgCl21 pH 9.8, manufactured by Sigma) was added to each well and was incubated at room temperature, and then absorbance at 405 nm was determined using a microplate reader (Model 3550, manufactured by BIO-RAD).

Row | Molecule | effect on binding between TAK1 and TAB1: amount of coprecipitated FLAG-TAB1 [1] | other results
1 | TAB1C-2: control peptide containing an amino acid sequence from Gln at position 437 to Gln at position 451 of TAB1 (SEQ ID NO: 41) (CQSPTLTLQSTNTHTQ; OTHER INFORMATION: Description of Artificial Sequence: Synthetic peptide) | no decrease in binding between TAK1 and TAB1 was observed | 
2 | TAB1C-1: peptide comprising 16 amino acid residues containing the TAK1 binding region of TAB1 (SEQ ID NO: 40) (CVEPYVDFAEFYRGRK; OTHER INFORMATION: Description of Artificial Sequence: Synthetic peptide) | a decrease in the amount of coprecipitated FLAG-TAB1 was observed | 
3 | B1 |  | inhibition of binding between MBP-TAB1C-FLAG and TAK1-6×His, absorbance [2]: decrease in absorbance dependent on the concentration
4 | B2 |  | binding to immobilized human TAK1-6×His polypeptide, absorbance at 405 nm [3]: absorbance increased depending on the concentration

— US6551840B2, “Method of screening TGF-β-inhibiting substances” (Chugai Seiyaku Kabushiki Kaisha, priority 1997, dated 2003)
